The RNAGym collection of RNA variant scans (doi:10.7554/elife.80360)

B1: Twister Ribozyme (parent)
chain: AACACUGCCAAUGCCGGUCCCAAGCCCGGAUAAAAGUGGAGGGGGCGG

Variants of: B1
Assay: self-cleavage, relative activity (ratio to wild type); higher = more cleavage; co-transcriptional

Variant | self-cleavage
AACACUGCCAAUGCCGGUCCCAAGUCCGGAUACAAGUGGAGGGGGCGG [C25U A33C] | 0.791
AACACUGCCAAUGCCGGUCCCAAGCCCAGAUAAAAGUGGAGAGGGCGG [G28A G42A] | 0.263
AACACUGCCACUGCCGGUCCCAAGACCGGAUAAAAGUGGAGGGGGCGG [A11C C25A] | 0.0918
AACACUUCCAAUGCCGGUCCCAAGCCCGGAUAAAAGUGGAGGGGACGG [G7U G45A] | 0.0748
AACACUGCCAAUGCCGGUCCCAAGCCCGGAUAAAAUCGGAGGGGGCGG [G36U U37C] | 0.283
ACCACUGCCAAUGCCGGUCCCAAGCUCGGAUAAAAGUGGAGGGGGCGG [A2C C26U] | 0.0792
AACACUGCCAAUGCCGGUCCCAAGCCCGGAUAAAAGUCGAGGGGGGGG [G38C C46G] | 0.801
AACACUGCCAAUGCCGGUCCCAAGCCCGGACAAAAGUGGAGAGGGCGG [U31C G42A] | 0.363
AACACUGCCAAUGCCGGUACCAAGCCCGGAUAAACGUGGAGGGGGCGG [C19A A35C] | 0.313
AACACUGCCAAUGCCGGUCCCAGGCCCGGAUAAAAGUGGAGGGGUCGG [A23G G45U] | 0.158
AACACUGCCAAUGCCGGUCCAAAGCCCGGAUAAAAGUGGAGGGGUCGG [C21A G45U] | 0.121
AGCACUGCCAAUGCCGGUCCCAAGCCCGGAUAAAAGUGGAGGGAGCGG [A2G G44A] | 0.316
AACACUUCCAAUGCCGGUCCCAUGCCCGGAUAAAAGUGGAGGGGGCGG [G7U A23U] | 0.0674
AACACUGCCAAUGCCGGUCCCAAGCCCGGAUAAAAGUGGAAGGCGCGG [G41A G44C] | 0.205
AACACUGCCAAUGCCGGUCCCAAGCCCGGAUGAAAGUGCAGGGGGCGG [A32G G39C] | 0.155
AACAGUGCCAAUGCCGGUCCCAAGCCCGGAUACAAGUGGAGGGGGCGG [C5G A33C] | 0.565
AACACUUCCAAUGCCGGUCCCAAGCCCGGAUAAAAGUGGAGUGGGCGG [G7U G42U] | 0.0886
AACACUGCCAAUGCCGGUCUCAACCCCGGAUAAAAGUGGAGGGGGCGG [C20U G24C] | 0.0962
AACACUGCCACUGCCGGUUCCAAGCCCGGAUAAAAGUGGAGGGGGCGG [A11C C19U] | 0.627
AACACUGCCAAUGUCGCUCCCAAGCCCGGAUAAAAGUGGAGGGGGCGG [C14U G17C] | 0.152
AACACUGACAAUGCCGGUCCCAAGCCCGGAUAAAAGUUGAGGGGGCGG [C8A G38U] | 0.169
AACACUGCCAAUGCCGGUCCCAAGCCCGGAUAAAGGUGAAGGGGGCGG [A35G G39A] | 0.374
AACACUGCCAAUGCCGGUCCCAAGCCCGGAUAAAGGUGUAGGGGGCGG [A35G G39U] | 0.18
AACACUGGCAAUGCCGGUCCCAAGCCCGGAUAAAAGUGGAGGGCGCGG [C8G G44C] | 0.177
AACCCUGCCAAUGCCGGUCCCAAGCCCGAAUAAAAGUGGAGGGGGCGG [A4C G29A] | 0.168
AACACUGCCAAUGCCGGUCCCAAGCCCGGAUAAAAGUGGAGGUCGCGG [G43U G44C] | 0.767
AACCCUGCCAAUGCCGGUCCGAAGCCCGGAUAAAAGUGGAGGGGGCGG [A4C C21G] | 0.0577

Variant | self-cleavage
AACACUGCCAAUGCCCGUCCCAAGCCCGGAUAAAAGUGGAGGGGGGGG [G16C C46G] | 0.262
AACACUGCCAAUGCCGGUUCCAAGCCCGGAUAAAAGAGGAGGGGGCGG [C19U U37A] | 0.406
AACACAGCCUAUGCCGGUCCCAAGCCCGGAUAAAAGUGGAGGGGGCGG [U6A A10U] | 1
AACUCUGCCAAUGCCGGUCCCAAGCCCGGAUAAAAGUGGAGGGUGCGG [A4U G44U] | 0.146
AACACUGCCAAUGCCGGUCCCAAGCCCGGAAAAAAGUGGAGGGGGCGA [U31A G48A] | 0.717
AACACUGCCAAUGCCGGUCCCCAGCCCGGAUAAAAGUUGAGGGGGCGG [A22C G38U] | 0.782
AACACUGCCAAUGCCGGUCCCAAGCCCGGAUAACAGUGGAGGGGUCGG [A34C G45U] | 0.167
UACACUGCCAAUACCGGUCCCAAGCCCGGAUAAAAGUGGAGGGGGCGG [A1U G13A] | 0.0679
AACAAUGCCAAUGCCGGUCCCAAGCCCGGAUACAAGUGGAGGGGGCGG [C5A A33C] | 0.439
AACACUGCCAAUGCCGGUCCCAAGCCCGGAUAAAAGUAGCGGGGGCGG [G38A A40C] | 0.129
AACACUGCCAAUGCCGGUCCCAAGCCGGGAUAAAAGUGGAUGGGGCGG [C27G G41U] | 0.0753
AACUCGGCCAAUGCCGGUCCCAAGCCCGGAUAAAAGUGGAGGGGGCGG [A4U U6G] | 0.0301
UACACUGACAAUGCCGGUCCCAAGCCCGGAUAAAAGUGGAGGGGGCGG [A1U C8A] | 0.0697
AACACUGCCAAUGCCCGUACCAAGCCCGGAUAAAAGUGGAGGGGGCGG [G16C C19A] | 0.165
AACACUGCCAAUGCCGGUCCCAAGCCCGGAUCAAAGUAGAGGGGGCGG [A32C G38A] | 1.03
AACACUGCCAAUGCCGGUCCCAAGCACGGAUAAAAGUGGAGGGGGAGG [C26A C46A] | 0.338
AAAACUGCCAAUGCCGGUCCCAAGCCCGGAUACAAGUGGAGGGGGCGG [C3A A33C] | 0.147
AACACUGCACAUGCCGGUCCCAAGCCCGGAUAAAAGUGGAGGGGGCGG [C9A A10C] | 0.574
AACACGGCCAAUGCCGGUCCCAAGCCCGGAUAAAAGUGGAGGGGGCUG [U6G G47U] | 0.151
AACACUGCCAAUGCCGGUCCCAAGCCCGGAUAAAAGUGGGGGGAGCGG [A40G G44A] | 0.157
AACACUGCCAAUGCCGGUCCCAAGCCCCGAUAAAAGUGGAGGGGGCUG [G28C G47U] | 0.378
AACACCGCCAAUGCCGGUCCCAAGCCCGGAUAAAAGUGGAGCGGGCGG [U6C G42C] | 0.11
AACACUGCCAAUGCCGGUCCCGAGCCCGUAUAAAAGUGGAGGGGGCGG [A22G G29U] | 0.183
AACACUGCCAAUGCCGGUCCCAAGCCCGGCUAAAAGCGGAGGGGGCGG [A30C U37C] | 0.154
AACACUGCCAAUGCCGGUCCCAAGCCCGGAUAAUAGUGGAUGGGGCGG [A34U G41U] | 0.185
AACACUGCCCAUGCCGGUCCCAAGCCCGGAUAAAAGUGUAGGGGGCGG [A10C G39U] | 0.148
AACACUGCCAAUGCCUGUCCCAAGCCCGGAUAAAAGUGGAGGGGGGGG [G16U C46G] | 0.963
